Results reported in patent publication US20050065082.

Assays:
[1] = target: GST (glutathione S-transferase) [GST: P08515]
[2] = target: T1, GST-BPL1 (N-terminal GST fusion protein of human BPL1, holocarboxylase synthetase)
T1 chain: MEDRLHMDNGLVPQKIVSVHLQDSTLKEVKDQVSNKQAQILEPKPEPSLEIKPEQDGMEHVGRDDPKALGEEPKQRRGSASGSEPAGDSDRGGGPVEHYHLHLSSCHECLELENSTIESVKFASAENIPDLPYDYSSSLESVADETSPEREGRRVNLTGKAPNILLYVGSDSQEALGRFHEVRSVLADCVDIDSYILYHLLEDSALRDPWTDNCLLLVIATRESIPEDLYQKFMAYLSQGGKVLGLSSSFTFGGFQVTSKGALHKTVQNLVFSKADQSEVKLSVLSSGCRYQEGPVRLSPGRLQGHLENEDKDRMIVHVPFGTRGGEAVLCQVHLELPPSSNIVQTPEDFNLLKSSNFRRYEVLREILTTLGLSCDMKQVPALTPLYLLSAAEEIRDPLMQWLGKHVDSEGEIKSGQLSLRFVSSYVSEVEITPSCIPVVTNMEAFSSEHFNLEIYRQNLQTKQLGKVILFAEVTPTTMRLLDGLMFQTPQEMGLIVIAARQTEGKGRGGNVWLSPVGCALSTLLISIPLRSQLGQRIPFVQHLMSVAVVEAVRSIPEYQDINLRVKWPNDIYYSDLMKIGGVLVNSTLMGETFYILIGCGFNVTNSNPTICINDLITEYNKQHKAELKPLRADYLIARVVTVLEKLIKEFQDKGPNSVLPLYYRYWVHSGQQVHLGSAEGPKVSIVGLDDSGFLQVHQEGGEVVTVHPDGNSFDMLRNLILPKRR

[3] = target: GST-BMAL1 (N-terminal GST fusion protein of human BMAL1; BMAL1b was used)
Chain of GST-BMAL1 (N-terminal GST fusion protein of human BMAL1; BMAL1b was used) (chain, as listed by the source): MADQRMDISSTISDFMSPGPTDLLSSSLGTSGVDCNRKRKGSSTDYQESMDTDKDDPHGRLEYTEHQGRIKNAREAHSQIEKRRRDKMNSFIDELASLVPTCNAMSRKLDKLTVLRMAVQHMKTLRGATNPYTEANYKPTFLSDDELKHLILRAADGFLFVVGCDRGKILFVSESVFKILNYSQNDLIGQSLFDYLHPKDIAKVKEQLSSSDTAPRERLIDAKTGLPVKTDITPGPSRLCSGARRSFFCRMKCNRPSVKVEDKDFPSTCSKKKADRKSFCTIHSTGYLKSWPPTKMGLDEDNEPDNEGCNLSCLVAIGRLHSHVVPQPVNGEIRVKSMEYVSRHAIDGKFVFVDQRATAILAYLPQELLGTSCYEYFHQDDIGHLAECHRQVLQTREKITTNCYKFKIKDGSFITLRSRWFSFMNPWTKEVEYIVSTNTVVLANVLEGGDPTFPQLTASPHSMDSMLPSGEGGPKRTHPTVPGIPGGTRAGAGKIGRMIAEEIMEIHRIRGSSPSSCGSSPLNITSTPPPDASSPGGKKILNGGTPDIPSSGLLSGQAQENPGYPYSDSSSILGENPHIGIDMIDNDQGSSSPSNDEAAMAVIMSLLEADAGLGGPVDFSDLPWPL

[4] = target: T2, GST-KIAA1491 complete (N-terminal GST-fusion protein of KIAA1491 complete)
T2 chain: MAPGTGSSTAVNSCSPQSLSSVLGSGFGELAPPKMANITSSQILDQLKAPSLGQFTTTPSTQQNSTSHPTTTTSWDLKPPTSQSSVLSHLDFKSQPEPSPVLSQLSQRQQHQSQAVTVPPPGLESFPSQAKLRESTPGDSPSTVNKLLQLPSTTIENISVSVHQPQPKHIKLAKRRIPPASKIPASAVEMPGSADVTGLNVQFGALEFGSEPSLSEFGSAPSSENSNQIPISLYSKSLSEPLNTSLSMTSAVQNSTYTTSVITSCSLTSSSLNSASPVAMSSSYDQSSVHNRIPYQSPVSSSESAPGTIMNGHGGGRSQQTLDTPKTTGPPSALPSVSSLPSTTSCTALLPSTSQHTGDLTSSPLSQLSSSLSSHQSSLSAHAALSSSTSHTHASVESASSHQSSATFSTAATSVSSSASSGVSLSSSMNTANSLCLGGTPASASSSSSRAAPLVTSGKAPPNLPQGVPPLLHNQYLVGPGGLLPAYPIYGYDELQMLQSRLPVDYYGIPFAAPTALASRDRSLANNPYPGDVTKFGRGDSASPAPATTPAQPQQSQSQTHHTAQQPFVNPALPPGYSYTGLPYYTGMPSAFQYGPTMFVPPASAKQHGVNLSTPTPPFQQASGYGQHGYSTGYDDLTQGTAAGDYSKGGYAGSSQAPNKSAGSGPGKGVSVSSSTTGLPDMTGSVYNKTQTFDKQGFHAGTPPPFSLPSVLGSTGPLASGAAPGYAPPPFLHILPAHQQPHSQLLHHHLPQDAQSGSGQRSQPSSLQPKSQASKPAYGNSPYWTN

[5] = target: GST-KIAA0596CT (N-terminal GST fusion protein of human KIAA0596CT, the C-terminal region, amino acids 639 to 1217, of KIAA0596) [GST: P08515]

B1: His-JNK3 (activated human JNK3 (JNK3α1) with an N-terminal histidine-tag) (protein)
chain: MSLHFLYYCSEPTLDVKIAFCQGFDKQVDVSYIAKHYNMSKSKVDNQFYSVEVGDSTFTVLKRYQNLKPIGSGAQGIVCAAYDAVLDRNVAIKKLSRPFQNQTHAKRAYRELVLMKCVNHKNIISLLNVFTPQKTLEEFQDVYLVMELMDANLCQVIQMELDHERMSYLLYQMLCGIKHLHSAGIIHRDLKPSNIVVKSDCTLKILDFGLARTAGTSFMMTPYVVTRYYRAPEVILGMGYKENVDIWSVGCIMGEMVRHKILFPGRDYIDQWNKVIEQLGTPCPEFMKKLQPTVRNYVENRPKYAGLTFPKLFPDSLFPADSEHNKLKASQARDLLSKMLVIDPAKRISVDDALQHPYINVWYDPAEVEAPPPQIYDKQLDEREHTIEEWKELIYKEVMNSEEKTKNGVVKGQPSPSAQVQQ
[1]
  Relative Strength (%) of the phosphorylated GST-c-Jun (1-79) band, 1.0 µg added protein (none added = 100): 92.7%
  Relative Strength (%) of the phosphorylated GST-c-Jun (1-79) band, 2.0 µg added protein (none added = 100): 93.6%
[2]
  Relative Strength (%) of the phosphorylated GST-c-Jun (1-79) band, 1.0 µg added protein (none added = 100): 81.6%
  Relative Strength (%) of the phosphorylated GST-c-Jun (1-79) band, 2.0 µg added protein (none added = 100): 59.7%
  phosphorylation of GST-BPL1 by JNK3 (in vitro kinase assay, [γ-32P] ATP, autoradiography): The phosphorylation of GST-BPL1 by JNK3 was observed. Since the phosphorylation was dependent on the dose of JNK3
[3]
  Relative Strength (%) of the phosphorylated GST-c-Jun (1-79) band, 1.0 µg added protein (none added = 100): 15.3%
  Relative Strength (%) of the phosphorylated GST-c-Jun (1-79) band, 2.0 µg added protein (none added = 100): 4.7%
  phosphorylation of GST-BMAL1 by JNK3 (in vitro kinase assay, [γ-32P] ATP, autoradiography): the phosphorylation of GST-BMAL1 by JNK3 was observed ... the phosphorylation was dependent on the dose of JNK3
[4]
  Relative Strength (%) of the phosphorylated GST-c-Jun (1-79) band, 1.0 µg added protein (none added = 100): 71.5%
  Relative Strength (%) of the phosphorylated GST-c-Jun (1-79) band, 2.0 µg added protein (none added = 100): 67.1%
  phosphorylation of GST-KIAA1491 complete by JNK3 (in vitro kinase assay, [γ-32P] ATP, autoradiography): GST-KIAA1491 complete were phosphorylated by JNK3 ... the phosphorylation was dependent on the dose of JNK3
[5]
  Relative Strength (%) of the phosphorylated GST-c-Jun (1-79) band, 1.0 µg added protein (none added = 100): 70.6%
  Relative Strength (%) of the phosphorylated GST-c-Jun (1-79) band, 2.0 µg added protein (none added = 100): 33.5%
